Publication PMC10873203

Molecular target: recombinant extracellular domain of human insulin receptor (human)
Assay: SDS-PAGE under non-reducing and reducing conditions (Coomassie); 0.5 µg ECD-IR in Laemmli buffer with or without 2.5% 2-mercaptoethanol, 80 °C 10 min

stoichiometry N: 2
Substance: recombinant extracellular domain of human insulin receptor
